Here are results for 125 sequences from the supplement of paper PMC9112550, “Optimization of the antimicrobial peptide Bac7 by deep mutational scanning” (BMC Biology, 2022).

The series has as its system Escherichia coli TOP10. Put plainly: shrunken log2 fold change of peptide-encoding DNA abundance (4.5 h post-induction vs induction); higher = less antimicrobial activity (less host growth inhibition). Particulars: time post-induction: 4.5 h; library: site-saturation at positions 5, 18, 19, 20.
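Note: peptides expressed intracellularly from a pBAD plasmid library in pooled LB shake-flask culture, induced with 0.3% L-arabinose, DNA abundance read by NGS, three biological replicates, DESeq2 with apeglm shrinkage.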

Consider RRIRNRPPRLPRPRPRPLFAPRP, for which the “shrunken log2 fold change” value is 0.0932.
The value for RRIRLRPPRLPRPRPRPTYHPRP was -0.358.
In the case of RRIRIRPPRLPRPRPRPVSAPRP, the “shrunken log2 fold change” value is 0.0887.
Regarding RRIRTRPPRLPRPRPRPKKHPRP, the “shrunken log2 fold change” value was -0.265.
As to RRIRSRPPRLPRPRPRPVSDPRP, the “shrunken log2 fold change” value was 0.32.
Regarding RRIRPRPPRLPRPRPRPTFLPRP, the “shrunken log2 fold change” value is -0.0646.
For the sequence RRIRQRPPRLPRPRPRPVNIPRP, the “shrunken log2 fold change” value turned out to be 0.0209.
In the case of RRIRLRPPRLPRPRPRPEMVPRP, the “shrunken log2 fold change” value came to 0.201.
With RRIRGRPPRLPRPRPRPFGVPRP, the “shrunken log2 fold change” value was determined as 0.446.
Next, RRIRHRPPRLPRPRPRPKHRPRP: 0.376.
In the case of RRIRIRPPRLPRPRPRPYRMPRP, the “shrunken log2 fold change” value was -1.26.
RRIRARPPRLPRPRPRPERSPRP: the “shrunken log2 fold change” value came out at 0.264.
Consider RRIRIRPPRLPRPRPRPPAHPRP, for which the “shrunken log2 fold change” value came to 0.139.
Next, RRIRVRPPRLPRPRPRPMQRPRP: -0.0413; RRIRYRPPRLPRPRPRPSVIPRP: -0.616; RRIRERPPRLPRPRPRPRKGPRP: 0.0234.
As for RRIRSRPPRLPRPRPRPQIVPRP, the “shrunken log2 fold change” value is -0.32.
Consider RRIRARPPRLPRPRPRPKPKPRP, for which the “shrunken log2 fold change” value stood at 0.936.
Take RRIRFRPPRLPRPRPRPYRWPRP: the “shrunken log2 fold change” value was -0.0143.
For the sequence RRIRRRPPRLPRPRPRPLDDPRP, the “shrunken log2 fold change” value turned out to be 0.0512.
For the sequence RRIRIRPPRLPRPRPRPSHWPRP, the “shrunken log2 fold change” value is -0.0355.
RRIRWRPPRLPRPRPRPQKFPRP: the “shrunken log2 fold change” value was -0.0956.
In the case of RRIRRRPPRLPRPRPRPIICPRP, the “shrunken log2 fold change” value is 0.0738.
With RRIRGRPPRLPRPRPRPVVHPRP, the “shrunken log2 fold change” value was determined as 0.254.
As for RRIRHRPPRLPRPRPRPSPYPRP, the “shrunken log2 fold change” value was -0.703.
For RRIRDRPPRLPRPRPRPTACPRP, the “shrunken log2 fold change” value was determined as 0.388.
RRIRLRPPRLPRPRPRPYITPRP: the “shrunken log2 fold change” value was -0.716.
Regarding RRIRFRPPRLPRPRPRPRMGPRP, the “shrunken log2 fold change” value turned out to be 0.302.
Consider RRIRTRPPRLPRPRPRPAWSPRP, for which the “shrunken log2 fold change” value was 0.358.
Take RRIRRRPPRLPRPRPRPTCSPRP: the “shrunken log2 fold change” value was determined as 0.0172.
Regarding RRIRYRPPRLPRPRPRPWRNPRP, the “shrunken log2 fold change” value is -0.00674.
On to RRIRARPPRLPRPRPRPGQWPRP, for which the “shrunken log2 fold change” value was found to be 0.466.
With RRIRIRPPRLPRPRPRPRMYPRP, the “shrunken log2 fold change” value was -0.33.
In the case of RRIRVRPPRLPRPRPRPMIAPRP, the “shrunken log2 fold change” value is 0.261.
For RRIRLRPPRLPRPRPRPISSPRP, the “shrunken log2 fold change” value stood at 0.106.
Next, RRIRFRPPRLPRPRPRPPWNPRP: -0.128; RRIRMRPPRLPRPRPRPTCHPRP: 0.317.
Next, RRIRMRPPRLPRPRPRPSYLPRP: -0.336.
Consider RRIRIRPPRLPRPRPRPMGMPRP, for which the “shrunken log2 fold change” value was -0.253.
The value for RRIRYRPPRLPRPRPRPFQEPRP was -0.152; that for RRIRCRPPRLPRPRPRPTVSPRP was 0.0953.
Regarding RRIRQRPPRLPRPRPRPMILPRP, the “shrunken log2 fold change” value was -0.109.
As for RRIRNRPPRLPRPRPRPEMMPRP, the “shrunken log2 fold change” value amounted to 0.317.
For RRIRKRPPRLPRPRPRPKQFPRP, the “shrunken log2 fold change” value was -0.123.
With RRIRNRPPRLPRPRPRPCFVPRP, the “shrunken log2 fold change” value was -0.147.
RRIRPRPPRLPRPRPRPRHTPRP: the “shrunken log2 fold change” value was determined as 0.136.
Regarding RRIRFRPPRLPRPRPRPCARPRP, the “shrunken log2 fold change” value came out at 0.232.
RRIRPRPPRLPRPRPRPCEAPRP: the “shrunken log2 fold change” value turned out to be 0.0756.
In the case of RRIRDRPPRLPRPRPRPVWAPRP, the “shrunken log2 fold change” value worked out at 0.548.
Regarding RRIRHRPPRLPRPRPRPTQFPRP, the “shrunken log2 fold change” value was -0.631.
Regarding RRIRMRPPRLPRPRPRPAMDPRP, the “shrunken log2 fold change” value worked out at 1.27.
The value for RRIRPRPPRLPRPRPRPQYIPRP was -0.457; that for RRIRCRPPRLPRPRPRPDSMPRP was -0.0886; that for RRIRSRPPRLPRPRPRPSVDPRP was 0.0566.
Consider RRIRERPPRLPRPRPRPTCYPRP, for which the “shrunken log2 fold change” value is -0.673.
RRIRWRPPRLPRPRPRPPNLPRP: the “shrunken log2 fold change” value was -0.24.
Take RRIRNRPPRLPRPRPRPLFWPRP: the “shrunken log2 fold change” value came out at 0.0854.
On to RRIRIRPPRLPRPRPRPHSDPRP, for which the “shrunken log2 fold change” value is -0.439.
Next, RRIRYRPPRLPRPRPRPFGCPRP: -0.139.
With RRIRTRPPRLPRPRPRPKEVPRP, the “shrunken log2 fold change” value is -0.0117.
Turning to RRIRTRPPRLPRPRPRPTVMPRP, the “shrunken log2 fold change” value was -0.152.
As for RRIRLRPPRLPRPRPRPGGTPRP, the “shrunken log2 fold change” value is -0.0425.
As for RRIRSRPPRLPRPRPRPGMAPRP, the “shrunken log2 fold change” value was 0.0998.
For the sequence RRIRGRPPRLPRPRPRPRLPPRP, the “shrunken log2 fold change” value was found to be 0.851.
In the case of RRIRGRPPRLPRPRPRPHFCPRP, the “shrunken log2 fold change” value was determined as 0.117.
For RRIRHRPPRLPRPRPRPEKWPRP, the “shrunken log2 fold change” value was -0.0863.
Next, RRIRGRPPRLPRPRPRPHPYPRP: 0.0786; RRIRCRPPRLPRPRPRPCHAPRP: -0.191; RRIRARPPRLPRPRPRPPRFPRP: 1.13.
In the case of RRIRIRPPRLPRPRPRPKYAPRP, the “shrunken log2 fold change” value is -0.118.
Regarding RRIRARPPRLPRPRPRPMVDPRP, the “shrunken log2 fold change” value was found to be 0.299.
RRIRTRPPRLPRPRPRPEGHPRP: the “shrunken log2 fold change” value worked out at 0.0274.
Consider RRIRQRPPRLPRPRPRPYTDPRP, for which the “shrunken log2 fold change” value was -0.209.
With RRIRFRPPRLPRPRPRPIENPRP, the “shrunken log2 fold change” value is -0.193.
Consider RRIRPRPPRLPRPRPRPDYLPRP, for which the “shrunken log2 fold change” value was -0.259.
The value for RRIRCRPPRLPRPRPRPMTGPRP was -0.103; that for RRIRGRPPRLPRPRPRPSPMPRP was 0.474; that for RRIRSRPPRLPRPRPRPPMDPRP was -0.0324.
With RRIRCRPPRLPRPRPRPFHYPRP, the “shrunken log2 fold change” value is -2.22e-05.
For the sequence RRIRPRPPRLPRPRPRPHYDPRP, the “shrunken log2 fold change” value is -0.459.
Take RRIRDRPPRLPRPRPRPEFSPRP: the “shrunken log2 fold change” value was found to be 0.221.
In the case of RRIRARPPRLPRPRPRPGFDPRP, the “shrunken log2 fold change” value stood at 0.719.
For the sequence RRIRCRPPRLPRPRPRPKQRPRP, the “shrunken log2 fold change” value came out at 0.222.
RRIRERPPRLPRPRPRPPDEPRP: the “shrunken log2 fold change” value is -0.0361.
For the sequence RRIRWRPPRLPRPRPRPIKFPRP, the “shrunken log2 fold change” value was -0.285.
Next, RRIRMRPPRLPRPRPRPYYGPRP: 0.0528.
In the case of RRIRVRPPRLPRPRPRPGSFPRP, the “shrunken log2 fold change” value was -0.122.
In the case of RRIRFRPPRLPRPRPRPLTNPRP, the “shrunken log2 fold change” value amounted to 0.0389.
The value for RRIRNRPPRLPRPRPRPSWPPRP was -0.0605; that for RRIRGRPPRLPRPRPRPNFFPRP was 0.122.
On to RRIRFRPPRLPRPRPRPHYSPRP, for which the “shrunken log2 fold change” value was -0.65.
On to RRIRPRPPRLPRPRPRPVNMPRP, for which the “shrunken log2 fold change” value is 0.0158.
With RRIRSRPPRLPRPRPRPPFQPRP, the “shrunken log2 fold change” value worked out at 0.073.
For the sequence RRIRIRPPRLPRPRPRPPIGPRP, the “shrunken log2 fold change” value was -0.0282.
Regarding RRIRWRPPRLPRPRPRPMIHPRP, the “shrunken log2 fold change” value is -0.0666.
The value for RRIRQRPPRLPRPRPRPFVEPRP was -0.152; that for RRIRGRPPRLPRPRPRPDQVPRP was 0.656; that for RRIRKRPPRLPRPRPRPKHHPRP was 0.122.
For the sequence RRIRFRPPRLPRPRPRPTFGPRP, the “shrunken log2 fold change” value came out at 0.0623.
As for RRIRWRPPRLPRPRPRPKDFPRP, the “shrunken log2 fold change” value was 0.0488.
As to RRIRHRPPRLPRPRPRPESYPRP, the “shrunken log2 fold change” value is -0.012.
As to RRIRLRPPRLPRPRPRPEHEPRP, the “shrunken log2 fold change” value was 0.13.
For RRIRYRPPRLPRPRPRPDTDPRP, the “shrunken log2 fold change” value was -0.02.
In the case of RRIRCRPPRLPRPRPRPGHFPRP, the “shrunken log2 fold change” value was -0.217.
Regarding RRIRKRPPRLPRPRPRPCATPRP, the “shrunken log2 fold change” value is 0.242.
As to RRIRERPPRLPRPRPRPYFLPRP, the “shrunken log2 fold change” value is -0.437.
The value for RRIRGRPPRLPRPRPRPLSTPRP was 1.13; that for RRIRRRPPRLPRPRPRPWWIPRP was 0.249; that for RRIRNRPPRLPRPRPRPEKMPRP was -0.00664.
Next, RRIRPRPPRLPRPRPRPFCCPRP: 0.0801; RRIRHRPPRLPRPRPRPFFWPRP: 0.093.
Take RRIRPRPPRLPRPRPRPFQWPRP: the “shrunken log2 fold change” value is -0.0697.
Consider RRIRCRPPRLPRPRPRPQRHPRP, for which the “shrunken log2 fold change” value is -0.173.
With RRIRYRPPRLPRPRPRPSGHPRP, the “shrunken log2 fold change” value was -0.265.
Next, RRIRLRPPRLPRPRPRPNNRPRP: -0.79; RRIRQRPPRLPRPRPRPTYHPRP: -0.184.
With RRIRERPPRLPRPRPRPGCNPRP, the “shrunken log2 fold change” value is -0.0442.
Consider RRIRLRPPRLPRPRPRPMWPPRP, for which the “shrunken log2 fold change” value is -0.0364.
With RRIRCRPPRLPRPRPRPCPYPRP, the “shrunken log2 fold change” value is -0.215.
Next, RRIRTRPPRLPRPRPRPQQSPRP: -0.0133.
RRIRIRPPRLPRPRPRPHLGPRP: the “shrunken log2 fold change” value is 0.0798.
As for RRIRVRPPRLPRPRPRPEMQPRP, the “shrunken log2 fold change” value was 0.175.
RRIRGRPPRLPRPRPRPHFYPRP: the “shrunken log2 fold change” value was 0.324.
Turning to RRIRPRPPRLPRPRPRPAHLPRP, the “shrunken log2 fold change” value was found to be 0.317.
Next, RRIRKRPPRLPRPRPRPTEEPRP: 2.12.
